Test results as given in IntAct's records for PubMed 11932251.

Molecular target: T1, ranb3_human RANBP3 (UniProt Q9H6Z4)
T1 sequence: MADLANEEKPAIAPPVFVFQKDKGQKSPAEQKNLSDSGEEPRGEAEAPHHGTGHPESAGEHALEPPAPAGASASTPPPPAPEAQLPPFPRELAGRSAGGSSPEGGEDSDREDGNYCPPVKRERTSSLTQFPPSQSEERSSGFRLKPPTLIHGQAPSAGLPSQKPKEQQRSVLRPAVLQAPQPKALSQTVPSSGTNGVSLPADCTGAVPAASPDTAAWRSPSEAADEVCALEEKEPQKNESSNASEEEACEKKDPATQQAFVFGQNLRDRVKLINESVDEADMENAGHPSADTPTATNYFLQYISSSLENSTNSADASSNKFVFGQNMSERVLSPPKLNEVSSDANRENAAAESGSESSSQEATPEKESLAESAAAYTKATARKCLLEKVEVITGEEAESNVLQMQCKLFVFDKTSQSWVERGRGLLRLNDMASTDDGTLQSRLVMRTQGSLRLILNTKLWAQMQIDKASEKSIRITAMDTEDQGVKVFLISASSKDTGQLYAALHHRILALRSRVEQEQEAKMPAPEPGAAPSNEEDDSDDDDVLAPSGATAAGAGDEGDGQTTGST

GTP-binding nuclear protein Ran (Homo sapiens) (from UniProt P62826) Q69L
effect of a mutation on the interaction: increasing interaction
